The text below walks through data of paper PMC10576003 (Nature Communications, 2023).

Sequences and labels used below:
B1: MHAS2168 (natural protein, Mycobacterium hassiacum)
chain: MSAFPQTPNRLIRPRRTSRGIAISAGGLAVLLGALDTYVVVSIVTDIMRDVGIAVNQIQRVTPIITGYLLGYIAAMPLLGRASDRFGRKLLIQISLAGFALGSVITALATNLDVLVAGRVIQGAASGALLPVTLALAADLWATHKRAAVLGGVGAAQELGAVLGPIYGIFVVWLFHHWQAVFWVNVPLALIAMVLIHISLPPRVRTEEPQRVDVTGGLLLALALGLATIGLYNAEPDGKQVLPEYGPPLIIGAVIAAVAFLVWERFARTRLLDPAGVRFRPFLIALLVSLVTGGALMVTLVNVELFGQGVLGLDQDEAVFLLARFLIALPVGALLGGWIATRVGDRAVTAVGLLIAAGGFYLIAQWPADVLESRHDLGFVSLPTLDTDLAIAGFGLGLVIAPLTSAALRVVPAAQHGIASAAVVVARMIGMLIGIAALSAWGLYRFNQYLKEQLAALPPAPADFPGGQMAGQMMRLRTATVQAYVLQYGEIFAITAGLCVFGAVLGLFIAGRREHAEESADAVDGVSNARDRAPSA
notes: C-terminal fusion: 3C protease cleavage site, GFP, His10; residues of the 3C site may be left after cleavage; also called Rv1410 homologue from Mycobacterium hassiacum; MHAS2168^OUT; not shown: GFP, C-terminal, cleaved; His10, C-terminal, cleaved

In assay [1] the target is T1, megabody H2 (Mb_H2) ( | alpaca).
T1 construct: the first thirteen N-terminal residues that form the β-strand A of a nanobody, encoded by the vector pBXMBQ; not shown: His10, C-terminal, cleaved
Briefly: cryo-EM structure. Particulars: both partners purified.

Assay [2] concerns the target B1. Briefly: crystal structure; […]) at 20 °C; […]. Particulars: both partners purified.

As for B1, the binding result in assay [1] is given as “binds”.

B2: nanobody H2 (Nb_H2) (VHH)
VHH: QGQLVESGGGLVQPGGSLRLSCADAGSIFNKFPMAWYRQAPGKERELVARISSGGSTNYADFVKGRFTISRDNAKSTLYLQMNSLKPEDTAMYYCARIINSASNIAYWGQGTRVTVSA
notes: alpaca-derived nanobody selected by phage display against MHAS2168; they are in PDB 8PNL chain B (and chain D); MBP and His-tag removed with 3C protease; not shown: His10, N-terminal, cleaved
Consider B2, for which the binding result in assay [2] is recorded as “binds”.
